Measurements from patent US20220056094A1 (JIANGSU HENGRUI MEDICINE, published 2022).
Like-named read-outs stand apart in the source and are kept apart here.

T1: his-tagged human IL-2Rα recombinant protein (SinoBiological, Cat #10165-H08H) (human, UniProt P01589 22-213)
T1 construct: Bought protein; also called IL-2Rα (His Tag)
T1 sequence: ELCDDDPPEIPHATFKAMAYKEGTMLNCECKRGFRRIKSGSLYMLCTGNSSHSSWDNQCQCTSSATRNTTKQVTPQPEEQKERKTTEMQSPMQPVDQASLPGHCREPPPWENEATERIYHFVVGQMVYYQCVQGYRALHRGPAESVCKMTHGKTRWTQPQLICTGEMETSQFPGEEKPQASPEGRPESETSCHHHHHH

T2: high-affinity receptor IL-2Rα/β/γ on CTLL2 cells (mouse-derived cell line) (mouse, UniProt P01590 22-268; P16297 27-539; P34902 23-369)
T2 sequence (looked up) 1: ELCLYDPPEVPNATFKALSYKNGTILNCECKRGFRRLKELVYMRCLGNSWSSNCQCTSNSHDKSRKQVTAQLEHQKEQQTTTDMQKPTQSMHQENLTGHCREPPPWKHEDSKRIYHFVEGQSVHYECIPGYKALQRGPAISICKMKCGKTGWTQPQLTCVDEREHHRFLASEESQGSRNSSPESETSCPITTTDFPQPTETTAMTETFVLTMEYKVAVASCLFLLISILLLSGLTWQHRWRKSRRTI
T2 sequence (looked up) 2: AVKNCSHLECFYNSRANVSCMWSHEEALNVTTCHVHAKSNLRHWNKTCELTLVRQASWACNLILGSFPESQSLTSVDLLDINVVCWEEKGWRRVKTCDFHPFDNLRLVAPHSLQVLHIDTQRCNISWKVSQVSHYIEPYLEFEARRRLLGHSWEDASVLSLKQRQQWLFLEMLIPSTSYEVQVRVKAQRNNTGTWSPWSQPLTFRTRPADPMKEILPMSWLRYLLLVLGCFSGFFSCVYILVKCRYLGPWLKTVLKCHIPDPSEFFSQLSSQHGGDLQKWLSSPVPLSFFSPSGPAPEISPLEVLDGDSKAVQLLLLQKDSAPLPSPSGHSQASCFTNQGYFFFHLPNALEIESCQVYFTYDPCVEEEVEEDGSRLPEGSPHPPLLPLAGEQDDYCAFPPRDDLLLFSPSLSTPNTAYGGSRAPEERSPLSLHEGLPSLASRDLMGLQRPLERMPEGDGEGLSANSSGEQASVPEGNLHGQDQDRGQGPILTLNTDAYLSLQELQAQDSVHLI
T2 sequence (looked up) 3: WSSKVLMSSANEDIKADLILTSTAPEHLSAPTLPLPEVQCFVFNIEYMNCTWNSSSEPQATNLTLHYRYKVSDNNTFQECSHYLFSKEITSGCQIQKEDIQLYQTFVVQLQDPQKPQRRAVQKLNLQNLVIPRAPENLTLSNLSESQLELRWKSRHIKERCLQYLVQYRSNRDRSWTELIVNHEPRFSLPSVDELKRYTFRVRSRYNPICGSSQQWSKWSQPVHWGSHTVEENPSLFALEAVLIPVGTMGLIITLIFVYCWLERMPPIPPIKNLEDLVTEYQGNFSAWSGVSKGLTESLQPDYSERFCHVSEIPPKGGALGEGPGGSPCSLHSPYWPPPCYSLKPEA

T3: IL-2 receptor IL-2Rα/β/γ on human peripheral blood Treg cells (human, UniProt P01589 22-272; P14784 27-551; P31785 23-369)
T3 sequence (looked up) 1: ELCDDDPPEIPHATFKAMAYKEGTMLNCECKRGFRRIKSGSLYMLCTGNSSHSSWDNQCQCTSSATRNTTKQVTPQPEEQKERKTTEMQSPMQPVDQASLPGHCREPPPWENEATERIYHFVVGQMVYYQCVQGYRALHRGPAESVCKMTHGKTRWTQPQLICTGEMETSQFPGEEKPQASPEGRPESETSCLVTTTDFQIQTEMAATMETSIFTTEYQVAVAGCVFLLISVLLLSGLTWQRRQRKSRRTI
T3 sequence (looked up) 2: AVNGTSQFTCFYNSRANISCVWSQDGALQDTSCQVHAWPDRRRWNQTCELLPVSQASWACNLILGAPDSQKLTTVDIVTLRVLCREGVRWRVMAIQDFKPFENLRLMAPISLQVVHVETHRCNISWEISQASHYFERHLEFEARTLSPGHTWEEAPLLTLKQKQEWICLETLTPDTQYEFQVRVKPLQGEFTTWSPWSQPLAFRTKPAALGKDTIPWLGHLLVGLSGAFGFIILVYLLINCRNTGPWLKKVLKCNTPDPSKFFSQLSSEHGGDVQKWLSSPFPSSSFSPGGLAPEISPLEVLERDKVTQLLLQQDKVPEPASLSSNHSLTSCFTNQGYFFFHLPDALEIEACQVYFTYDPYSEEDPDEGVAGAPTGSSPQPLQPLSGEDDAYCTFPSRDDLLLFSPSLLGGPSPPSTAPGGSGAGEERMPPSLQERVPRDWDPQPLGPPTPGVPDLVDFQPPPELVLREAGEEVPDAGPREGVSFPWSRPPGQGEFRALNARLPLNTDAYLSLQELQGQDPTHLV
T3 sequence (looked up) 3: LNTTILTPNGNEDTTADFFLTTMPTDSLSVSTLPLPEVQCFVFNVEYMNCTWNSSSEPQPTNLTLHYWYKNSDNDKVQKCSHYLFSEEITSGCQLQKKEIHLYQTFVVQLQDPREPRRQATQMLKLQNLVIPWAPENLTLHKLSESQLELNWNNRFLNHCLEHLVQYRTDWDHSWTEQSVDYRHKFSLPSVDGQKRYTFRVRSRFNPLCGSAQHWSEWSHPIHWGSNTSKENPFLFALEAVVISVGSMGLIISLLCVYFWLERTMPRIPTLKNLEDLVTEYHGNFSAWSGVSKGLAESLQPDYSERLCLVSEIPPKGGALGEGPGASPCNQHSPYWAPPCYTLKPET

T4: medium-affinity receptor IL-2Rβ/γ on human cells (Mo7e cell line; human CD8+T and NK cells) (human, UniProt P14784 27-551; P31785 23-369)
T4 sequence (looked up) 1: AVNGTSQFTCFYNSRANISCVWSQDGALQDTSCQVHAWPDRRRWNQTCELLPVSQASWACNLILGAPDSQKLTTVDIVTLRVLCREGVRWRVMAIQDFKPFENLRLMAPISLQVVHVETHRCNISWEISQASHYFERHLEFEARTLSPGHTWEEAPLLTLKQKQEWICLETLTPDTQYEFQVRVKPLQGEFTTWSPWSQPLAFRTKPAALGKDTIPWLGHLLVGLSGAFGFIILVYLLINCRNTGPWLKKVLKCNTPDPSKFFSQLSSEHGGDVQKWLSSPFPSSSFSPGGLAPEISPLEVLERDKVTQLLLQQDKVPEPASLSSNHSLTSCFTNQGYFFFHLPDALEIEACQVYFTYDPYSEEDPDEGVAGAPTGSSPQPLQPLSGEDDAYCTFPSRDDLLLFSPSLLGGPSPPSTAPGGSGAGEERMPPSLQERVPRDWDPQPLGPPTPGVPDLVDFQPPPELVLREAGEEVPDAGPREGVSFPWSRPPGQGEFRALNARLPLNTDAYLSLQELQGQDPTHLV
T4 sequence (looked up) 2: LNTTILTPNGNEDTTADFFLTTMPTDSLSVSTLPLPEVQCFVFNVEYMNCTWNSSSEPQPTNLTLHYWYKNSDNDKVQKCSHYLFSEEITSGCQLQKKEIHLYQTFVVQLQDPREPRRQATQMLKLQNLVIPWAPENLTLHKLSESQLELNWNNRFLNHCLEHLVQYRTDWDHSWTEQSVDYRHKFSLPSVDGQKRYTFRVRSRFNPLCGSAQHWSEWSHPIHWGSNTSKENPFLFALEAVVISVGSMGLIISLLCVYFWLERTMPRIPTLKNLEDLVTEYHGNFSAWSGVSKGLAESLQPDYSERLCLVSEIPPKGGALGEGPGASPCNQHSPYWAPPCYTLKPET


Experiments:
[1] = target: T5, IL-2Rβ/γ-Fc heterodimer (IL-2Rβ-Fc-hole with IL-2Rγ-Fc-knob); assay: SPR (Biacore), IL-2Rβ/γ-Fc captured on Protein A chip, 1:1 model
T5 construct: Co-expressed in HEK293 cells and purified with Protein A and Superdex 200
Protocol: The Protein A sensor chip (GE, Cat #29127556) of the Biacore instrument (Biacore T200, GE) was used to capture IL-2Rβ/γ-Fc, wherein IL-2Rβ/γ-Fc was diluted with 1×HBS-EP to 1 μg/mL, and flowed at a flow rate of 10 μL/min for 30 seconds. […] The Biacore instrument (Biacore X100, GE) was used to detect the reaction in real time, to obtain association and dissociation curves. After each cycle of dissociation was completed, the chip was washed and regenerated with 10 mM Gly-HCl pH 1.5.

[2] = target: T1, his-tagged human IL-2Rα recombinant …; assay: ELISA, his-tagged IL-2Rα coated, HRP anti-IL-2 polyclonal detection
Protocol: 96-well microtiter plate was coated with 2 μg/mL his-tagged IL-2Rα recombinant protein (SinoBiological, Cat #10165-H08H), and incubated overnight at 4° C. The plate was washed with washing solution for three times, 250 μl per well. For each time of washing, the plate was shaken for 10 seconds to ensure sufficient washing. 200 μl/well blocking solution was added and incubated at room temperature for 2 hours. The plate was washed with washing solution for three times, 250 μl per well. For each time of washing, the plate was shaken for 10 seconds to ensure sufficient washing. […] The plate was incubated for 1 hour at room temperature. The plate was washed with washing solution for three times, 250 μl per well. […] The plate was incubated for 1 hour at room temperature. The plate was washed with washing solution for three times, 250 μl per well. 100 μl TMB was added to each well, and the reaction was performed for 15 minutes in the dark. 50 μl of 0.16 M sulfuric acid was added to each well.

[3] = target: T2, high-affinity receptor IL-2Rα/β/γ on …; assay: cell-based or functional assay
[4] = target: T3, IL-2 receptor IL-2Rα/β/γ on human …; assay: cell-based or functional assay
[5] = target: T4, medium-affinity receptor IL-2Rβ/γ on …; assay: cell-based or functional assay
[6] = target: T2, high-affinity receptor IL-2Rα/β/γ on …; assay: cell-based or functional assay; remark: listed apart in the source

T5 sequence (chain, as listed by the source limits assumed, chain 1 of 2): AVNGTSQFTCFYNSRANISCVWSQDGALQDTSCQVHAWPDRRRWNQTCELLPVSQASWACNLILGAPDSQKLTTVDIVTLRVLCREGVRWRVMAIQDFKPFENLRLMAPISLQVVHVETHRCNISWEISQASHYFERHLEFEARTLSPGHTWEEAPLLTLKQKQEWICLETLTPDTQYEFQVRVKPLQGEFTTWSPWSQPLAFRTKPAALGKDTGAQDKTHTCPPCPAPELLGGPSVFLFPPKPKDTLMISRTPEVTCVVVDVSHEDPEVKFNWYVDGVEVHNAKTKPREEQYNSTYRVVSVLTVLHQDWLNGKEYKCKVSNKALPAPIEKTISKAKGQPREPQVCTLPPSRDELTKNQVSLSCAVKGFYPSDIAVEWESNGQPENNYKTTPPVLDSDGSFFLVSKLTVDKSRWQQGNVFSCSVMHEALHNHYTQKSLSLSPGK
T5 sequence (chain, as listed by the source limits assumed, chain 2 of 2): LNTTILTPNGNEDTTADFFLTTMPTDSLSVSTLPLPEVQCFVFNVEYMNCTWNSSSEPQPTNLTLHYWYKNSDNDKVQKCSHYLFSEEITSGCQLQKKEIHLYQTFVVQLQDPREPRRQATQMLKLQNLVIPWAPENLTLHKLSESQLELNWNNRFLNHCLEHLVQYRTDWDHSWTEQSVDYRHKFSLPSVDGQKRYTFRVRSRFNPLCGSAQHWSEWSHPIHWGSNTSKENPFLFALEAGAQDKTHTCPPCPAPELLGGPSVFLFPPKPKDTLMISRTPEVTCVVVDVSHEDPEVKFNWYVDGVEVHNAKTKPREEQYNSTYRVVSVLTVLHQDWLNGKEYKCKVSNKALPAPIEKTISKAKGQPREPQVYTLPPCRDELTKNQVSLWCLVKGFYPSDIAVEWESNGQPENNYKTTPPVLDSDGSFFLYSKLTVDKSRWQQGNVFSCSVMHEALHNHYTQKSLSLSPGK

Kd [1] [nM] | koff [1] [s⁻¹] | kon [1] [M⁻¹ s⁻¹] | EC50 [2] [nM] | relative biological activity (CTLL2 cell proliferation) [3] [%] | EC50 (STAT5 phosphorylation in human Treg cells) [4] [nM] | relative biological activity (STAT5 phosphorylation in human Treg cells) [4] [%] | EC50 (Mo7e cell proliferation) [5] [nM] | relative biological activity (Mo7e cell proliferation) [5] [%] | EC50 (CTLL2 cell proliferation) [6] [nM] | relative biological activity (CTLL2 cell proliferation) [6] [%] | Binder
0.253 | 0.000135 | 533000 | 1.53 | 162 |  |  |  |  |  |  | IL-2-03 (Q11C/L132C) (ligand, The entry already carries the mutations and C125A and begins with M. Made in E. coli) MAPTSSSTKKTCLQLEHLLLDLQMILNGINNYKNPKLTRMLTFKFYMPKKATELKHLQCLEEELKPLEEVLNLAQSKNFHLRPRDLISNINVIVLELKGSETTFMCEYADETATIVEFLNRWITFAQSIISTCT
 |  |  |  |  | 6.02 | 0.007 |  |  |  |  | PEGylated IL-2-24 (ligand, mono-PEGylated with 20 kDa mPEG-butyraldehyde (sodium cyanoborohydride); site not stated) MAPTSSSTKKTQLQLEHLLLDLQMILQGISNYKNPKLTRMLTFKFYMPKKATELKHLQCLEEELKPLEEVLNLAQSKNFHLRPRDLISRINVIVLELKGSETTFMCEYADETATIVEFLNRWITFAQSIISTLT
 |  |  |  |  |  |  | 2.84 | 86 | 5.73 | 0.9 | IL-2-22 (N26Q/N29S/F42A/N71Q/L72G) (ligand) MAPTSSSTKKTQLQLEHLLLDLQMILQGISNYKNPKLTRMLTAKFYMPKKATELKHLQCLEEELKPLEEVLQGAQSKNFHLRPRDLISNINVIVLELKGSETTFMCEYADETATIVEFLNRWITFAQSIISTLT
0.302 | 0.00015 | 498000 | 0.87 | 176 |  |  |  |  |  |  | IL-2-04 (L70C/P82C) (ligand, The entry already carries the mutations and C125A and begins with M. Made in E. coli) MAPTSSSTKKTQLQLEHLLLDLQMILNGINNYKNPKLTRMLTFKFYMPKKATELKHLQCLEEELKPLEEVCNLAQSKNFHLRCRDLISNINVIVLELKGSETTFMCEYADETATIVEFLNRWITFAQSIISTLT
